Measurements reported in PMC7518326 (2020).

Target: T1, BBI (Bcl9 peptide) 351-357 (Homo sapiens, UniProt O00512)
T1 chain: LSQEQLE

- Kd: ~1000 nM
B1: β-catenin (protein)
chain: ATQADLMELDMAMEPDRKAAVSHWQQQSYLDSGIHSGATTTAPSLSGKGNPEEEDVDTSQVLYEWEQGFSQSFTQEQVADIDGQYAMTRAQRVRAAMFPETLDEGMQIPSTQFDAAHPTNVQRLAEPSQMLKHAVVNLINYQDDAELATRAIPELTKLLNDEDQVVVNKAAVMVHQLSKKEASRHAIMRSPQMVSAIVRTMQNTNDVETARCTAGTLHNLSHHREGLLAIFKSGGIPALVKMLGSPVDSVLFYAITTLHNLLLHQEGAKMAVRLAGGLQKMVALLNKTNVKFLAITTDCLQILAYGNQESKLIILASGGPQALVNIMRTYTYEKLLWTTSRVLKVLSVCSSNKPAIVEAGGMQALGLHLTDPSQRLVQNCLWTLRNLSDAATKQEGMEGLLGTLVQLLGSDDINVVTCAAGILSNLTCNNYKNKMMVCQVGGIEALVRTVLRAGDREDITEPAICALRHLTSRHQEAEMAQNAVRLHYGLPVVVKLLHPPSHWPLIKATVGLIRNLALCPANHAPLREQGAIPRLVQLLVRAHQDTQRRTSMGGTQQQFVEGVRMEEIVEGCTGALHILARDVHNRIVIRGLNTIPLFVQLLYSPIENIQRVAAGVLCELAQDKEAAEAIEAEGATAPLTELLHSRNEGVATYAAAVLFRMSEDKPQDYKKRLSVELTSSLFRTEPMAWNETADLGLDIGAQGEPLGYRQDDPSYRSFHSGGYGQDALGMDPMMEHEMGGHHPGADYPVDGLPDLGHAQDLMDGLPPGDSNQLAWFDTDL
